B1: TPR t1 (parent)
chain: GACCAAUCUGCCCUCAGAGCUCGAGAACAUCUUCGGAUGCAGAGGAGGCAGGCUUCGGUGGCGCGAUAGCGCCAACGUCCUCAACCUCCAAUGCAUCCCACCACAUGAUGAUGCCUGAAGAGCCUUGGUUUUUUG

Variants of: B1
Assay: polymerase ribozyme fitness, log enrichment relative to wild type (log ratio); higher = more active; in vitro selection for triplet polymerase activity
Outline: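 For each subunit of a heterodimeric triplet polymerase ribozyme, a mutant library was built by PCR and transcribed, then taken through a single in vitro selection round in triplicate. Selection involved annealing to a biotinylated primer, the partner subunit and triplets, incubation frozen at −7 °C, gel excision of extended constructs, capture on streptavidin beads and RT-PCR. Genotypes were retained after Illumina sequencing of inputs and outputs only with ≥10 input reads and ≥1 read in each output. Fitness is defined as the logarithm of a genotype's enrichment relative to wild-type enrichment, using inverse-variance-weighted averages across replicates, with the logarithm taken to base 2.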

Row | Variant | polymerase ribozyme fitness (log ratio)
1 | GACCAAUCUGCCCUCAGAGCUCGAGAACAUCUUCGGAUGCAGAGGAGGCAGGCUUCGGUGGCGCGAUAGCGCGAACGUCCUCAUCCUCCAAUGCAUCCCACCACAUGAUGAUGCCUGAAGAGCCUUGGUUUUUUG | -1.52
2 | GACCAAUCUGCCCUCAGAGCUCGAGAACAUCUUCGGAUGCAGAGGAGGCAGGCUUCGGUGGCGCGAUAGCGCGAACGUCCUCAACUUCCAAUGCAUCCCACCACAUGAAGAUGCCUGAAGAGCCUUGGUUUUUUG | -6.23
3 | GACCAAUCUGCCCUCAGAGCUCGAGAACAUCUUCGGAUGCAGAGGAGGCAGGCUUCGGUGGCGCGAUAGCGCGAACGUCCUCAACCUCCAAUGCAUCCCACCACAUGAUGUUGCCUGAAGAGCCUUGGUUUUUUG | -4.08
4 | GACCAAUCUGCCCUCAGAGCUCGAGAACAUCUUCGGAUGCAGAGGAGGCAGGCUUCGGUGGCGCGAUAGCGCGAACGUCCUCAACCUCCAAUGCAUCCCAUCACAUGAUGACGCCUCAAGAGCCUUGGUUUUUUG | -2.53
5 | GACCAAUCUGCCCUCAGAGCUCGAGAACAUCUUCGGAUGCAGAGGAGGCAGGCUUCGGUGGCGCGAUAGCGCAAACGUCCUCAACCUCCAAUGCAUCCCACCACAUGAUGAUGGCUGAAGAGCCUUGGUAUUUUG | -2.99
6 | GACCAAUCUGCCCUCAGAGCUCGAGAACAUCUUCGGAUGCAGAGGAGGCAGGCUUCGGUGGCGCGAUAGCGCGAACGUCCUCAACCUCCAAUGCAUCCCACCACAUGAUGAUGCCAGAAGAGCCUUGGUUUUUUG | -3.66
7 | GACCAAUCUGCCCUCAGAGCUCGAGAACAUCUUCGGAUGCAGAGGAGGCAGGCUUCGGUGGCGCGAUAGCGCAAACGUCCUCAACCUCCAAUGCAUCCCACCACAUGAUGAUGGCUGAAGAGCCUUGGUUUUUUG | -2.17
8 | GACCAAUCUGCCCUCAGAGCUCGAGAACAUCUUCGGAUGCAGAGGAGGCAGGCUUCGGUGGCGCGAUAGCGCAAACGUCCUCAACCUCCAAUGCAUCCCACCACAUGAUGAUACCUGAAGAGCCUUGGUUAUUUG | -1.4
9 | GACCAAUCUGCCCUCAGAGCUCGAGAACAUCUUCGGAUGCAGAGGAGGCAGGCUUCGGUGGCGCGAUAGCGCGAACGUCCUCAACCUCCAAUGCAUCCCACCACUUGAUGAUGCCUGAAGAGCCUUGGUUUUUUG | -2.27
10 | GACCAAUCUGCCCUCAGAGCUCGAGAACAUCUUCGGAUGCAGAGGAGGCAGGCUUCGGUGGCGCGAUAGCGCAAACGUCCUCAACCCCCAAUGCAUCCCACCACAUGAUGAUGCCUGAAGAGCCUUGGUUUUUUG | 0.572
11 | GACCAAUCUGCCCUCAGAGCUCGAGAACAUCUUCGGAUGCAGAGGAGGCAGGCUUCGGUGGCGCGAUAGCGCGAACGUCCUCCACCUCCAAUGCAUCCCAGCACAUGAUGAUGCUAGAAGAGCCUUGGUUUUUUG | -5.12
12 | GACCAAUCUGCCCUCAGAGCUCGAGAACAUCUUCGGAUGCAGAGGAGGCAGGCUUCGGUGGCGCGAUAGCGCGAACGUCCUCAACCUCCAAUGCAUCCCACCACAUGAUGAUCCCUGAAGAGCCUUGGUUUUUUG | -2.85
13 | GACCAAUCUGCCCUCAGAGCUCGAGAACAUCUUCGGAUGCAGAGGAGGCAGGCUUCGGUGGCGCGAUAGCGCGAACGUCCUCAACCUCCAAUGCAUCCCACCACAUGAUGAUGCCUGAAGAGACUUGGUUUUUUG | 0.232
14 | GACCAAUCUGCCCUCAGAGCUCGAGAACAUCUUCGGAUGCAGAGGAGGCAGGCUUCGGUGGCGCGAUAGCGCGAACGUCAUCAACCUCCAAUGCAUCCCACCACAUGAUGAUGCCUGAAGAGCCUUGGUUUUUUG | -4.88
15 | GACCAAUCUGCCCUCAGAGCUCGAGAACAUCUUCGGAUGCAGAGGAGGCAGGCUUCGGUGGCGCGAUAGCGCAAACGUCCUCAACCUCCAAUGCAUCCCACCACAUGAUGAUGCCUGAAUAGCCUUGGUUUUUUG | 0.347
16 | GACCAAUCUGCCCUCAGAGCUCGAGAACAUCUUCGGAUGCAGAGGAGGCAGGCUUCGGUGGCGCGAUAGCGCAAACGUCCUCAACCUCCAAUGCAUCCCACCACAUGAUGAUGCCUGAAAAGCCUUGGUUUUUUG | 0.528
17 | GACCAAUCUGCCCUCAGAGCUCGAGAACAUCUUCGGAUGCAGAGGAGGCAGGCUUCGGUGGCGCGAUAGCGCAAACGUCCUCAACCUCCAAUGCAUCCCACCACAUGAUGAUGCCUGAAGAGCCUUGUUUUUUUG | -2.16
18 | GACCAAUCUGCCCUCAGAGCUCGAGAACAUCUUCGGAUGCAGAGGAGGCAGGCUUCGGUGGCGCGAUAGCGCGAACGUCCUCAACCUCCAAUGCAUCCCAACACAUGAUGAUGCCUGAACAGCCUUGGUUUUUUG | -0.681
19 | GACCAAUCUGCCCUCAGAGCUCGAGAACAUCUUCGGAUGCAGAGGAGGCAGGCUUCGGUGGCGCGAUAGCGCGAACGUCCUCAACCUCCAAUCCAUCCCACCACAUGAUGAUGCCUGAAGAGCCUUGGUUUUUUG | -2.05
20 | GACCAAUCUGCCCUCAGAGCUCGAGAACAUCUUCGGAUGCAGAGGAGGCAGGCUUCGGUGGCGCGAUAGCGCAAACGUCCUCAACCUCCAAUGCAUCCCACCACAUGAUGAUGCCUGAAGAGCCAUGGUUUUUUG | -0.432
21 | GACCAAUCUGCCCUCAGAGCUCGAGAACAUCUUCGGAUGCAGAGGAGGCAGGCUUCGGUGGCGCGAUAGCGCAAACGUCCUCAACCUCCAAUGCACCCCACCACAUGAUGAUGCCUGAAGAGCCUUGGUUUUUUG | 0.0129

Row | Variant | polymerase ribozyme fitness (log ratio)
22 | GACCAAUCUGCCCUCAGAGCUCGAGAACAUCUUCGGAUGCAGAGGAGGCAGGCUUCGGUGGCGCGAUAGCGCGAACGUCCUCAUCCUCCAAUGCAUCCCACCACAUGAUGACGCCUGAAGAGCCUUGGUUUUUUG | 0.269
23 | GACCAAUCUGCCCUCAGAGCUCGAGAACAUCUUCGGAUGCAGAGGAGGCAGGCUUCGGUGGCGCGAUAGCGCGAACGUCCUCAACCUCCAAUGCAUCCCUCCACAUGAUGAUGCCUGAAGAGCCUUGGUUUUUUG | -1.09
24 | GACCAAUCUGCCCUCAGAGCUCGAGAACAUCUUCGGAUGCAGAGGAGGCAGGCUUCGGUGGCGCGAUAGCGCGAACGUCCUCAACCUCCAAUGCAUCACACCACAUGAUGAUGCCUGAAGAGCCUUGGUUUUUUG | -6.22
25 | GACCAAUCUGCCCUCAGAGCUCGAGAACAUCUUCGGAUGCAGAGGAGGCAGGCUUCGGUGGCGCGAUAGCGCAAACGUCCUCAACCUCCAAUGCAUCCCACCACAUGAUGAUGCCUGAAGAGCCUUGGUUUUUUC | 0.342
26 | GACCAAUCUGCCCUCAGAGCUCGAGAACAUCUUCGGAUGCAGAGGAGGCAGGCUUCGGUGGCGCGAUAGCGCGAACGUCCUCAACCUCCAAUGCAUCCCACCACAUGAUGAUGCCUGAAGAGCAUUGGUGUUUUG | 1.1
27 | GACCAAUCUGCCCUCAGAGCUCGAGAACAUCUUCGGAUGCAGAGGAGGCAGGCUUCGGUGGCGCGAUAGCGCAAACGUCCUCAACCUCCAAUGCAUCCCACCACAUCAUGAUGCCUGAAGAGCCUUGGUUUUUUG | -4.16
28 | GACCAAUCUGCCCUCAGAGCUCGAGAACAUCUUCGGAUGCAGAGGAGGCAGGCUUCGGUGGCGCGAUAGCGCGAACGUCCUCAACCUCCAAUGCAUCCCACCACAUGAUGAUGCCUGAAGAUGCUUGGUUUUUUG | 0.776
29 | GACCAAUCUGCCCUCAGAGCUCGAGAACAUCUUCGGAUGCAGAGGAGGCAGGCUUCGGUGGCGCGAUAGCGCGAACGUCCUCAACCUCCAAUGCAUCCCACCACAUGAUGAUGCCUGAACAGCCUUGUUUUUUUG | -1.34
30 | GACCAAUCUGCCCUCAGAGCUCGAGAACAUCUUCGGAUGCAGAGGAGGCAGGCUUCGGUGGCGCGAUAGCGCAAACGUCCUCAACCUCCAAGGCAUCCCACCACAUGAUGAUGCCUGAAGAGCCUUGGUUUUUUG | -2.07
31 | GACCAAUCUGCCCUCAGAGCUCGAGAACAUCUUCGGAUGCAGAGGAGGCAGGCUUCGGUGGCGCGAUAGCGCAAACGUCCUCAACCUCCAAUGCAUCCCACCACAUGAUGAUACCUGAAGAGCCUUGGUUUUUUG | -0.815
32 | GACCAAUCUGCCCUCAGAGCUCGAGAACAUCUUCGGAUGCAGAGGAGGCAGGCUUCGGUGGCGCGAUAGCGCGAACGUCCUCAACAUCCAAUGCAUCCCACCACAUGAUGAUGCCUGAAGAGCCUUGGUUUUUUG | -1.38
33 | GACCAAUCUGCCCUCAGAGCUCGAGAACAUCUUCGGAUGCAGAGGAGGCAGGCUUCGGUGGCGCGAUAGCGCAAACGUCCUCAACCUCCAAUACAUCCCACCACAUGAUGAUGCCUGAAGAGCCUUGGUUGUUUG | -0.498
34 | GACCAAUCUGCCCUCAGAGCUCGAGAACAUCUUCGGAUGCAGAGGAGGCAGGCUUCGGUGGCGCGAUAGCGCAAACGUCCUCAACCUCCAAUGCAUCCCACCACAUGAUGAUGCCUGAAUCGCCUUGGUUUUUUG | 0.179
35 | GACCAAUCUGCCCUCAGAGCUCGAGAACAUCUUCGGAUGCAGAGGAGGCAGGCUUCGGUGGCGCGAUAGCGCGAACGUCCUCAACCUCCAAUGCAUCCCACUACAUGAUGAUGCCUGAGGAGCCUUGGUUUUUUG | -1.29
36 | GACCAAUCUGCCCUCAGAGCUCGAGAACAUCUUCGGAUGCAGAGGAGGCAGGCUUCGGUGGCGCGAUAGCGCGAACUUCCUCAACCUCCAAUGCAUCCCACCACAUGAUGAUGUCUGAAGAGCCUUGGUUUUUUG | -3.31
37 | GACCAAUCUGCCCUCAGAGCUCGAGAACAUCUUCGGAUGCAGAGGAGGCAGGCUUCGGUGGCGCGAUAGCGCGAACGUCCGCAACCUCCAAUGCAUCCCACCACAUGAUGAUGCCUGAAGAGCCUUGGUUUUUUG | -3.66
38 | GACCAAUCUGCCCUCAGAGCUCGAGAACAUCUUCGGAUGCAGAGGAGGCAGGCUUCGGUGGCGCGAUAGCGCAAACGUCCUCAACCCCCAAUGCACCCCACCACAUGAUGGUGCCUGAAGAGCCUUGGUUUUUUG | -0.596
39 | GACCAAUCUGCCCUCAGAGCUCGAGAACAUCUUCGGAUGCAGAGGAGGCAGGCUUCGGUGGCGCGAUAGCGCGAACGUCCUCAACCUCCAAUGCAUCCCACCACAUGAUGAUGCCUAAAGUGCCUUGGUUUUUUG | -0.326
40 | GACCAAUCUGCCCUCAGAGCUCGAGAACAUCUUCGGAUGCAGAGGAGGCAGGCUUCGGUGGCGCGAUAGCGCGAACGUCCUCAACCUCCAAUGCAUCCCACCACAUGAUGAUGCCUGAAGAGCCUUGAUUUUUUG | -2.13
41 | GACCAAUCUGCCCUCAGAGCUCGAGAACAUCUUCGGAUGCAGAGGAGGCAGGCUUCGGUGGCGCGAUAGCGCAAACGUCCACAACCUCCGAUGCAUCCCACCACAUGAUGAUGCCUGAAGAGCCUUGGUUUUUUG | -0.106
42 | GACCAAUCUGCCCUCAGAGCUCGAGAACAUCUUCGGAUGCAGAGGAGGCAGGCUUCGGUGGCGCGAUAGCGCGAACGUCCUCAACCUCCAAUGCAGCCCACAACAUGAUGAUGCCUGAAGAGCCUUGGUUUUUUG | -3.86
